Test results: doi:10.1101/2021.01.29.428744

Target: AlexaFluor594-tagged α-SYN pre-formed fibrils (PFFs) (human) (UniProt P37840)
Assay: two-color coincidence detection

[…]1 (from UniProt Q9H0R8 1-117) (natural protein)
relative presence of GFP species in the aggregates: 0.14
